Results taken from the supplement of paper PMC5998384.

Legend:
HeLa Kyoto [1] = assay: solubility in G1/S (NP-40 vs SDS abundance) (log2 ratio); higher = more soluble; conditions: cell cycle stage: G1/S
HeLa Kyoto [2] = assay: solubility change mitosis vs G1/S (difference of NP-40 vs SDS log2 ratios) (log2 ratio difference); higher = more soluble in mitosis
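Throughout, for solubility change mitosis vs G1/S (difference of NP-40 vs SDS log2 ratios): synchronized HeLa Kyoto cells (double thymidine block for G1/S, nocodazole release for mitosis), protein amounts in NP-40 versus SDS lysates quantified by mass spectrometry, three biological replicates.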
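Throughout, for solubility in G1/S (NP-40 vs SDS abundance): HeLa Kyoto cells arrested at G1/S by double thymidine block, proteins quantified by TMT10plex mass spectrometry in mild NP-40 versus SDS extracts, three biological replicates.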

Sequence	solubility in G1/S (log2) (HeLa Kyoto [1])	solubility change mitosis (log2) (HeLa Kyoto [2])
MEELSSVGEQVFAAECILSKRLRKGKLEYLVKWRGWSSKHNSWEPEENILDPRLLLAFQKKEHEKEVQNRKRGKRPRGRPRKLTAMSSCSRRSKLKEPDAPSKSKSSSSSSSSTSSSSSSDEEDDSDLDAKRGPRGRETHPVPQKKAQILVAKPELKDPIRKKRGRKPLPPEQKATRRPVSLAKVLKTARKDLGAPASKLPPPLSAPVAGLAALKAHAKEACGGPSAMATPENLASLMKGMASSPGRGGISWQSSIVHYMNRMTQSQAQAASRLALKAQATNKCGLGLDLKVRTQKGELGMSPPGSKIPKAPSGGAVEQKVGNTGGPPHTHGASRVPAGCPGPQPAPTQELSLQVLDLQSVKNGMPGVGLLARHATATKGVPATNPAPGKGTGSGLIGASGATMPTDTSKSEKLASRAVAPPTPASKRDCVKGSATPSGQESRTAPGEARKAATLPEMSAGEESSSSDSDPDSASPPSTGQNPSVSVQTSQDWKPTRSLIEHVFVTDVTANLITVTVKESPTSVGFFNLRHY [CBX2]	-0.63	0.268
MEEPEEPADSGQSLVPVYIYSPEYVSMCDSLAKIPKRASMVHSLIEAYALHKQMRIVKPKVASMEEMATFHTDAYLQHLQKVSQEGDDDHPDSIEYGLGYDCPATEGIFDYAAAIGGATITAAQCLIDGMCKVAINWSGGWHHAKKDEASGFCYLNDAVLGILRLRRKFERILYVDLDLHHGDGVEDAFSFTSKVMTVSLHKFSPGFFPGTGDVSDVGLGKGRYYSVNVPIQDGIQDEKYYQICESVLKEVYQAFNPKAVVLQLGADTIAGDPMCSFNMTPVGIGKCLKYILQWQLATLILGGGGYNLANTARCWTYLTGVILGKTLSSEIPDHEFFTAYGPDYVLEITPSCRPDRNEPHRIQQILNYIKGNLKHVV [HDAC8]	0.168	-0.213
MEFSIKQSPLSVQSVVKCIKMKQAPEILGSANGKTPSCEVNRECSVFLSKAQLSSSLQEGVMQKFNGHDALPFIPADKLKDLTSRVFNGEPGAHDAKLRFESQEMKGIGTPPNTTPIKNGSPEIKLKITKTYMNGKPLFESSICGDSAADVSQSEENGQKPENKARRNRKRSIKYDSLLEQGLVEAALVSKISSPSDKKIPAKKESCPNTGRDKDHLLKYNVGDLVWSKVSGYPWWPCMVSADPLLHSYTKLKGQKKSARQYHVQFFGDAPERAWIFEKSLVAFEGEGQFEKLCQESAKQAPTKAEKIKLLKPISGKLRAQWEMGIVQAEEAASMSVEERKAKFTFLYVGDQLHLNPQVAKEAGIAAESLGEMAESSGVSEEAAENPKSVREECIPMKRRRRAKLCSSAETLESHPDIGKSTPQKTAEADPRRGVGSPPGRKKTTVSMPRSRKGDAASQFLVFCQKHRDEVVAEHPDASGEEIEELLRSQWSLLSEKQRARYNTKFALVAPVQAEEDSGNVNGKKRNHTKRIQDPTEDAEAEDTPRKRLRTDKHSLRKRDTITDKTARTSSYKAMEAASSLKSQAATKNLSDACKPLKKRNRASTAASSALGFSKSSSPSASLTENEVSDSPGDEPSESPYESADETQTEVSVSSKKSERGVTAKKEYVCQLCEKPGSLLLCEGPCCGAFHLACLGLSRRPEGRFTCSECASGIHSCFVCKESKTDVKRCVVTQCGKFYHEACVKKYPLTVFESRGFRCPLHSCVSCHASNPSNPRPSKGKMMRCVRCPVAYHSGDACLAAGCSVIASNSIICTAHFTARKGKRHHAHVNVSWCFVCSKGGSLLCCESCPAAFHPDCLNIEMPDGSWFCNDCRAGKKLHFQDIIWVKLGNYRWWPAEVCHPKNVPPNIQKMKHEIGEFPVFFFGSKDYYWTHQARVFPYMEGDRGSRYQGVRGIGRVFKNALQEAEARFREIKLQREARETQESERKPPPYKHIKVNKPYGKVQIYTADISEIPKCNCKPTDENPCGFDSECLNRMLMFECHPQVCPAGEFCQNQCFTKRQYPETKIIKTDGKGWGLVAKRDIRKGEFVNEYVGELIDEEECMARIKHAHENDITHFYMLTIDKDRIIDAGPKGNYSRFMNHSCQPNCETLKWTVNGDTRVGLFAVCDIPAGTELTFNYNLDCLGNEKTVCRCGASNCSGFLGDRPKTSTTLSSEEKGKKTKKKTRRRRAKGEGKRQSEDECFRCGDGGQLVLCDRKFCTKAYHLSCLGLGKRPFGKWECPWHHCDVCGKPSTSFCHLCPNSFCKEHQDGTAFSCTPDGRSYCCEHDLGAASVRSTKTEKPPPEPGKPKGKRRRRRGWRRVTEGK [WHSC1]	-1.29	0.535
MEGLGRSCLWLRRELSPPRPRLLLLDCRSRELYESARIGGALSVALPALLLRRLRRGSLSVRALLPGPPLQPPPPAPVLLYDQGGGRRRRGEAEAEAEEWEAESVLGTLLQKLREEGYLAYYLQGGFSRFQAECPHLCETSLAGRAGSSMAPVPGPVPVVGLGSLCLGSDCSDAESEADRDSMSCGLDSEGATPPPVGLRASFPVQILPNLYLGSARDSANLESLAKLGIRYILNVTPNLPNFFEKNGDFHYKQIPISDHWSQNLSRFFPEAIEFIDEALSQNCGVLVHCLAGVSRSVTVTVAYLMQKLHLSLNDAYDLVKRKKSNISPNFNFMGQLLDFERSLRLEERHSQEQGSGGQASAASNPPSFFTTPTSDGAFELAPT [DUSP9]	0.279	-0.104
MEGRSAAAETFVWVNNASAHSQSVAKAKYEFLFGRSEGKAPDTSDHGGSTLLPPNVTNEFPEYGTMEEGGEGLRASLEFDGEALPCHPQEQQGVQPLTGCHSGLDSVTEGPKDVREAPSQSHLKEQSLQPIDSLISALKATEARIISGTLQATKVLDQDAVSSFSVQQVEKELDTASRKTQRVNKTLPAGQKNLPEIPLSAEVTTEESFYLSIQKDLTALLTGDTQAEISQIMNNGRKGAVCVQEPSCPLASLGSSAVTCHSAGSVGFLKEQRSALGREHPGGCDRSSSMGRPGRVKHVEFQGVEILWTGGDKRETQHPIDFETSLQRTASPDSKESSKVPRHLISSAGLCNSSSLTENVWDESWKAPSERPGTSSGTFSPVRLDESGEDEVFLQENKQHLEKTPKPERDRERISEQEEHVKGEDEDILGPGYTEDSTDVYSSQFETILDNTSLYYSAESLETLYSEPDSYFSFEMPLTPMIQQRIKEGGQFLERTSGGGHQDILSVSADGGIVMGYSSGVTNGLNDASDSIYTKGTPEIAFWGSNAGVKTTRLEAHSEMGSTEILEKETPENLSNGTSSNVEAAKRLAKRLYQLDRFKRSDVAKHLGKNNEFSKLVAEEYLKFFDFTGMTLDQSLRYFFKAFSLVGETQERERVLIHFSNRYFYCNPDTIASQDGVHCLTCAIMLLNTDLHGHVNIGKKMTCQEFIANLQGVNEGVDFSKDLLKALYNSIKNEKLEWAVDDEEKKKSPSESTEEKANGTHPKTISRIGSTTNPFLDIPHDPNAAVYKSGFLARKIHADMDGKKTPRGKRGWKTFYAVLKGTVLYLQKDEYKPEKALSEEDLKNAVSVHHALASKATDYEKKPNVFKLKTADWRVLLFQTQSPEEMQGWINKINCVAAVFSAPPFPAAIGSQKKFSRPLLPATTTKLSQEEQLKSHESKLKQITTELAEHRSYPPDKKVKAKDVDEYKLKDHYLEFEKTRYEMYVSILKEGGKELLSNDESEAAGLKKSHSSPSLNPDTSPITAKVKRNVSERKDHRPETPSIKQKVT [PSD3]	-0.107	-0.00479
MEIAPQEAPPVPGADGDIEEAPAEAGSPSPASPPADGRLKAAAKRVTFPSDEDIVSGAVEPKDPWRHAQNVTVDEVIGAYKQACQKLNCRQIPKLLRQLQEFTDLGHRLDCLDLKGEKLDYKTCEALEEVFKRLQFKVVDLEQTNLDEDGASALFDMIEYYESATHLNISFNKHIGTRGWQAAAHMMRKTSCLQYLDARNTPLLDHSAPFVARALRIRSSLAVLHLENASLSGRPLMLLATALKMNMNLRELYLADNKLNGLQDSAQLGNLLKFNCSLQILDLRNNHVLDSGLAYICEGLKEQRKGLVTLVLWNNQLTHTGMAFLGMTLPHTQSLETLNLGHNPIGNEGVRHLKNGLISNRSVLRLGLASTKLTCEGAVAVAEFIAESPRLLRLDLRENEIKTGGLMALSLALKVNHSLLRLDLDREPKKEAVKSFIETQKALLAEIQNGCKRNLVLAREREEKEQPPQLSASMPETTATEPQPDDEPAAGVQNGAPSPAPSPDSDSDSDSDGEEEEEEEGERDETPCPALVPPTDSLGPGDRSPPGSPSTPTEQRISVSSPGRGHKVFVVTRVESPPERAEPPASPTPPSPPPPPSPPASPSLPPAGAIDTRDTGSSEPQPPPEPPRSGPPLPNGLKPEFALALPPEPPPGPEVKGGSCGLEHELSCSKNEKELEELLLEASQESGQETL [PPP1R37]	0.0581	-0.284
MEKLSALQEQKGELRKRLSYTTHKLEKLETEFDSTRHYLEIELRRAQEELEKVTEKLRRIQSNYMALQRINQELEDKLYRMGQHYEEEKRALSHEIVALNSHLLEAKVTIDKLSEDNELYRKDCNLAAQLLQCSQTYGRVHKVSELPSDFQERVSLHMEKHGCSLPSPLCHPAYADSVPTCVIAKVLEKPDPASLSSRLSDASARDLAFCDGVEKPGPRPPYKGDIYCSDTALYCPEERRRDRRPSVDAPVTDVGFLRAQNSTDSAAEEEEEAEAAAFPAGFQHEAFPSYAGSLPTSSSYSSFSATSEEKEHAQASTLTASQQAIYLNSRDELFDRKPPATTYEGSPRFAKATAAVAAPLEAEVAPGFGRTMSPYPAETFRFPASPGPQQALMPPNLWSLRAKPGTARLPGEDMRGQWRPLSVEDIGAYSYPVSAAGRASPCSFSERYYGGAGGSPGKKADGRASPLYASYKADSFSEGDDLSQGHLAEPCFLRAGGDLSLSPGRSADPLPGYAPSEGGDGDRLGVQLCGTASSPEPEQGSRDSLEPSSMEASPEMHPAARLSPQQAFPRTGGSGLSRKDSLTKAQLYGTLLN [BEGAIN]	0.208	0.103
MEKLYSENEGMASNQGKMENEEQPQDERKPEVTCTLEDKKLENEGKTENKGKTGDEEMLKDKGKPESEGEAKEGKSEREGESEMEGGSEREGKPEIEGKPESEGEPGSETRAAGKRPAEDDVPRKAKRKTNKGLAHYLKEYKEAIHDMNFSNEDMIREFDNMAKVQDEKRKSKQKLGAFLWMQRNLQDPFYPRGPREFRGGCRAPRRDIEDIPYV [TCEAL4]	0.49	0.452
MEKPRSIEETPSSEPMEEEEDDDLELFGGYDSFRSYNSSVGSESSSYLEESSEAENEDREAGELPTSPLHLLSPGTPRSLDGSGSEPAVCEMCGIVGTREAFFSKTKRFCSVSCSRSYSSNSKKASILARLQGKPPTKKAKVLHKAAWSAKIGAFLHSQGTGQLADGTPTGQDALVLGFDWGKFLKDHSYKAAPVSCFKHVPLYDQWEDVMKGMKVEVLNSDAVLPSRVYWIASVIQTAGYRVLLRYEGFENDASHDFWCNLGTVDVHPIGWCAINSKILVPPRTIHAKFTDWKGYLMKRLVGSRTLPVDFHIKMVESMKYPFRQGMRLEVVDKSQVSRTRMAVVDTVIGGRLRLLYEDGDSDDDFWCHMWSPLIHPVGWSRRVGHGIKMSERRSDMAHHPTFRKIYCDAVPYLFKKVRAVYTEGGWFEEGMKLEAIDPLNLGNICVATVCKVLLDGYLMICVDGGPSTDGLDWFCYHASSHAIFPATFCQKNDIELTPPKGYEAQTFNWENYLEKTKSKAAPSRLFNMDCPNHGFKVGMKLEAVDLMEPRLICVATVKRVVHRLLSIHFDGWDSEYDQWVDCESPDIYPVGWCELTGYQLQPPVAAEPATPLKAKEATKKKKKQFGKKRKRIPPTKTRPLRQGSKKPLLEDDPQGARKISSEPVPGEIIAVRVKEEHLDVASPDKASSPELPVSVENIKQETDD [L3MBTL2]	-0.293	0.0658
MELLCCEGTRHAPRAGPDPRLLGDQRVLQSLLRLEERYVPRASYFQCVQREIKPHMRKMLAYWMLEVCEEQRCEEEVFPLAMNYLDRYLSCVPTRKAQLQLLGAVCMLLASKLRETTPLTIEKLCIYTDHAVSPRQLRDWEVLVLGKLKWDLAAVIAHDFLAFILHRLSLPRDRQALVKKHAQTFLALCATDYTFAMYPPSMIATGSIGAAVQGLGACSMSGDELTELLAGITGTEVDCLRACQEQIEAALRESLREASQTSSSPAPKAPRGSSSQGPSQTSTPTDVTAIHL [CCND3]	0.226	-0.386
